The values that follow come from patent US20230235013A1 (MABSOLVE, published 2023).

For experiment [1], the target named is T1, human FcγRIIA (R131) (human, UniProt P12318 34-218, limits assumed).
T1 construct: bought; R131 allele
T1 sequence (looked up): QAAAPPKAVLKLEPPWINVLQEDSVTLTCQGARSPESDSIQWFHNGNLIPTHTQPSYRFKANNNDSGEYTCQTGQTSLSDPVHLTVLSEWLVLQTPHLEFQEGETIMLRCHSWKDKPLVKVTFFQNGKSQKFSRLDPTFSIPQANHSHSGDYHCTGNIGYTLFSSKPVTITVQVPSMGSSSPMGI
Put plainly: SPR, receptor captured on anti-His chip.

For experiment [2], the target named is T2, human FcγRIIIB (NA2 allotype) (human, UniProt O75015 17-200, limits assumed).
T2 construct: bought; NA2 allotype
Briefly: SPR, receptor captured on anti-His chip. Background: In SPR one partner is held on a chip, and binding of the other changes the refractive index at the surface.

The target in experiment [3] is T3, cynomolgus monkey FcRn (cynomolgus monkey, UniProt Q8SPV9 24-297; Q8SPW0 21-119).
T3 construct: bought; also called cynomolgus FcRn
Briefly: SPR pH 6.0, FcRn captured.
Procedure: Samples of purified antibodies comprising variant Fc regions (1 mg/mL in PBS) were diluted with running buffer to 100 μg/mL and were injected for 1 min at 30 μL/min and allowed to disassociate for 2 min. Between each cycle, the chip was regenerated by injection of 10 mM glycine pH 3.0 for 0.5 min at a flow rate of 30 μL/min and recharged with a fresh injection of FcγRI. At the beginning of each experiment, three blank cycles were run, with buffer alone being injected instead of test sample. The average SPR signal (relative to the reference cell) was measured in a window approximately 8 to 13 seconds before the injection of test sample (baseline) and approximately 3 to 8 seconds before the end of injection (response). The response of the third of the blank (buffer) samples was subtracted from the response of each test sample in order to allow for any dissociation of the bound FcγRI giving a corrected response for each test sample. The whole experiment was repeated three times with the test samples being analysed in different orders each time. […] This lot was run at the beginning and end of each experiment as a consistency check.
As before the binding responses were corrected by subtraction of the response given by a blank sample consisting of running buffer alone.

The target in experiment [4] is T4, human FcRn (human, UniProt P55899 24-297; P61769 21-119).
T4 construct: bought
T4 sequence (P55899 24-297 limits assumed, chain 1 of 2): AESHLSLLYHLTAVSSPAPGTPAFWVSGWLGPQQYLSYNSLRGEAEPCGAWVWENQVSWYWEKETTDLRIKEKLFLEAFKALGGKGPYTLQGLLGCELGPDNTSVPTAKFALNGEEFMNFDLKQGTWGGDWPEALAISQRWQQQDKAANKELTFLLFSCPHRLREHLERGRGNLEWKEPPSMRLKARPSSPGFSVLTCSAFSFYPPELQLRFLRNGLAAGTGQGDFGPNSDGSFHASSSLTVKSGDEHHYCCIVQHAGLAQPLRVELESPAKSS
T4 sequence (P61769 21-119 limits assumed, chain 2 of 2): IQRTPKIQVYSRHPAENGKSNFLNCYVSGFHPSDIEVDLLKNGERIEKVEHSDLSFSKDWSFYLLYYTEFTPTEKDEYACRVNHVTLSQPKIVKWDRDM
Briefly: SPR pH 6.0, FcRn captured; Expt 2.

Experiment [5] addresses T4, human FcRn. Put plainly: SPR pH 6.0, FcRn captured; Expt 1.
The target of experiment [6] is T5, Histidine-tagged recombinant human FcγRI (CD64) (human, UniProt P12314 16-288, limits assumed).
T5 construct: bought
Briefly: SPR, His-FcγRI captured; Expt 3.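 Also: biacore T200 SPR at 25 °C, Fc-variant antibodies at 100 µg/mL flowed 1 min over anti-His-captured FcγRI, signal taken just before injection end minus a buffer blank cycle; antibody analyte injected at 100 µg/mL for 1 min.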

Experiment [7] addresses T5, Histidine-tagged recombinant human …. Briefly: SPR, His-FcγRI captured; Expt 2.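 Also: biacore T200 SPR at 25 °C, Fc-variant antibodies at 100 µg/mL flowed 1 min over anti-His-captured receptor, signal read near injection end minus third buffer blank; antibody analyte injected at 100 µg/mL for 1 min.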
Experiment [8] has as its target T6, human FcγRIIIA (F158) (human, UniProt P08637 17-208).
T6 construct: bought; F158 allele
Briefly: SPR, FcγRIIIA captured. Also: test concentration or dose not given here.

Experiment [9] addresses T5, Histidine-tagged recombinant human …. Briefly: SPR, His-FcγRI captured; Expt 1.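 Also: SPR at 25 °C on anti-His antibody chip capturing FcγRI, Fc-variant antibodies injected at 100 µg/mL for 1 min, signal near end of injection minus buffer blank.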
In experiment [10] the target is T7, mouse FcγRI (mouse, UniProt P26151 25-297).
T7 construct: bought; captured on anti-histidine chip
T7 sequence (looked up): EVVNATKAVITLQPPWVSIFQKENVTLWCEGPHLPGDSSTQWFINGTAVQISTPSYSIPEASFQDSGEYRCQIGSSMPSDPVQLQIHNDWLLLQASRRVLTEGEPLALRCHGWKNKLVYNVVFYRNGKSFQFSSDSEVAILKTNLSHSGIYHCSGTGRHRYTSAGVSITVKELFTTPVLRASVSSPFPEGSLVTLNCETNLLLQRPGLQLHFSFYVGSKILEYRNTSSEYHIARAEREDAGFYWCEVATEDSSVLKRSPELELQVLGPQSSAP
Briefly: SPR, receptor captured on anti-His chip.

The target of experiment [11] is T8, rat FcγRI (rat, UniProt A0A0B4J2J0 16-285).
T8 construct: bought; captured on anti-histidine chip
T8 sequence: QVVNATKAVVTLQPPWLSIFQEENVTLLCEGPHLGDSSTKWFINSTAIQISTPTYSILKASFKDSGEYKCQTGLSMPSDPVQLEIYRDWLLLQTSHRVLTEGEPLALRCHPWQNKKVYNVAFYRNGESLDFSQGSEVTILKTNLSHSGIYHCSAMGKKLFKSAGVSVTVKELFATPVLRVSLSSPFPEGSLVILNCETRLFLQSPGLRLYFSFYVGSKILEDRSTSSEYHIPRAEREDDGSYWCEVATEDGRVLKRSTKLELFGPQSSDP
Put plainly: SPR, receptor captured on anti-His chip.

Experiment [12] deals with T9, rabbit FcγRI (rabbit).
T9 construct: bought; captured on anti-histidine chip
Put plainly: SPR, receptor captured on anti-His chip.

Experiment [13] concerns the target T5, Histidine-tagged recombinant human …. Briefly: SPR, His-FcγRI captured; Expt 2 Rep 2.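 Also: antibody analyte injected at 100 µg/mL for 1 min.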
Procedure: (§1) Methods were run using the manufacturer's standard method wizards as described in the Biacore® T200 Instrument Handbook.
(§2) The cell was activated by treatment with EDC/NHS for 7 min. The antibody was diluted to 10 μg/mL in 10 mM sodium acetate pH 5.0 and injected for 7 min at 5 μL/min. The flow cell was deactivated by injection of 1M ethanolamine for 7 min. This process was repeated in the absence of anti-his antibody on a separate flow cell to generate a reference surface. […] Samples of purified antibodies comprising variant Fc regions (1 mg/mL in PBS) were diluted with running buffer to 100 μg/mL and were injected for 1 min at 30 μL/min and allowed to disassociate for 2 min. Between each cycle, the chip was regenerated by injection of 10 mM glycine pH 3.0 for 0.5 min at a flow rate of 30 μL/min and recharged with a fresh injection of FcγRI. At the beginning of each experiment, three blank cycles were run, with buffer alone being injected instead of test sample. The average SPR signal (relative to the reference cell) was measured in a window approximately 8 to 13 seconds before the injection of test sample (baseline) and approximately 3 to 8 seconds before the end of injection (response). The response of the third of the blank (buffer) samples was subtracted from the response of each test sample in order to allow for any dissociation of the bound FcγRI giving a corrected response for each test sample. The whole experiment was repeated three times with the test samples being analysed in different orders each time. […] This lot was run at the beginning and end of each experiment as a consistency check.
Experiment [14] has the same target. Briefly: SPR, His-FcγRI captured; Expt 1 Rep 2.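 Also: antibody analyte injected at 100 µg/mL for 1 min.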
Procedure: as §1, §2
Experiment [15] has the same target. Briefly: SPR, His-FcγRI captured; Expt 1 Rep 1.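 Also: antibody analyte injected at 100 µg/mL for 1 min.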
Procedure: as §1, §2
Experiment [16] shares this target. Briefly: SPR, His-FcγRI captured; CHO-produced; Expt 1 Rep 1.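 Also: antibody analyte injected at 100 µg/mL for 1 min.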
Procedure: as §1, §2
Experiment [17] shares this target. Put plainly: SPR, His-FcγRI captured; Expt 2 Rep 1.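 Also: antibody analyte injected at 100 µg/mL for 1 min.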
Procedure: as §1, §2
The target is the same in experiment [18]. Briefly: SPR, His-FcγRI captured; mean.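 Also: biacore T200 SPR at 25 °C, anti-His surface capturing FcγRI, Fc-variant antibodies injected at 100 µg/mL for 1 min, signal near injection end minus third buffer blank, three repeats.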
Procedure: Binding analysis was carried out by surface plasmon resonance at 25° C. using a Biacore® T200 instrument with Biacore® T200 control software. The sample compartment was held at 5° C. The running buffer (HBS-EP+) consisted of 0.01 M HEPES pH 7.4, containing 0.15 M NaCl, 3 mM EDTA, and 0.05% v/v Surfactant P20. Methods were run using the manufacturer's standard method wizards as described in the Biacore® T200 Instrument Handbook.
The cell was activated by treatment with EDC/NHS for 7 min. The antibody was diluted to 10 μg/mL in 10 mM sodium acetate pH 5.0 and injected for 7 min at 5 μL/min. The flow cell was deactivated by injection of 1M ethanolamine for 7 min. This process was repeated in the absence of anti-his antibody on a separate flow cell to generate a reference surface. […] Samples of purified antibodies comprising variant Fc regions (1 mg/mL in PBS) were diluted with running buffer to 100 μg/mL and were injected for 1 min at 30 μL/min and allowed to disassociate for 2 min. Between each cycle, the chip was regenerated by injection of 10 mM glycine pH 3.0 for 0.5 min at a flow rate of 30 μL/min and recharged with a fresh injection of FcγRI. At the beginning of each experiment, three blank cycles were run, with buffer alone being injected instead of test sample. The average SPR signal (relative to the reference cell) was measured in a window approximately 8 to 13 seconds before the injection of test sample (baseline) and approximately 3 to 8 seconds before the end of injection (response). The response of the third of the blank (buffer) samples was subtracted from the response of each test sample in order to allow for any dissociation of the bound FcγRI giving a corrected response for each test sample. The whole experiment was repeated three times with the test samples being analysed in different orders each time.
Experiment [19] has the same target. Briefly: SPR, His-FcγRI captured; CHO-produced; Expt 2 Rep 1.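 Also: antibody analyte injected at 100 µg/mL for 1 min.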
Procedure: as §1, §2
The target is the same in experiment [20]. Put plainly: SPR, His-FcγRI captured; CHO-produced; Expt 2 Rep 2.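 Also: antibody analyte injected at 100 µg/mL for 1 min.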
Procedure: as §1, §2
Experiment [21] shares this target. Put plainly: SPR, His-FcγRI captured; CHO-produced; Expt 1 Rep 2.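 Also: antibody analyte injected at 100 µg/mL for 1 min.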
Procedure: as §1, §2
Experiment [22] deals with T6, human FcγRIIIA (F158). Briefly: SPR, receptor captured on anti-His chip.
Experiment [23] deals with T5, Histidine-tagged recombinant human …. Briefly: SPR, receptor captured on anti-His chip.

T6 sequence (P08637 17-208 limits assumed): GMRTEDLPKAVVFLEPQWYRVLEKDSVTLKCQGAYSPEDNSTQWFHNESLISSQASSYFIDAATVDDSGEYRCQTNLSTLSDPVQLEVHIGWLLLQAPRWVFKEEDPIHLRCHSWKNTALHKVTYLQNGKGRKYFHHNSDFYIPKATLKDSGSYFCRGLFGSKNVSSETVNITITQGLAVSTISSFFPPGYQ

B1: anti-CD20 human IgG1 L234Q/L235S/G236R (antibody)
heavy: QVQLQQPGAELVKPGASVKMSCKASGYTFTSYNMHWVKQTPGRGLEWIGAIYPGNGDTSYNQKFKGKATLTADKSSSTAYMQLSSLTSEDSAVYYCARSTYYGGDWYFNVWGAGTTVTVSSASTKGPSVFPLAPSSKSTSGGTAALGCLVKDYFPEPVTVSWNSGALTSGVHTFPAVLQSSGLYSLSSVVTVPSSSLGTQTYICNVNHKPSNTKVDKKVEPKSCDKTHTCPPCPAPEQSRGPSVFLFPPKPKDTLMISRTPEVTCVVVDVSHEDPEVKFNWYVDGVEVHNAKTKPREEQYNSTYRVVSVLTVLHQDWLNGKEYKCKVSNKALPAPIEKTISKAKGQPREPQVYTLPPSRDELTKNQVSLTCLVKGFYPSDIAVEWESNGQPENNYKTTPPVLDSDGSFFLYSKLTVDKSRWQQGNVFSCSVMHEALHNHYTQKSLSLSPGK
light: QIVLSQSPAILSASPGEKVTMTCRASSSVSYIHWFQQKPGSSPKPWIYATSNLASGVPVRFSGSGSGTSYSLTISRVEAEDAATYYCQQWTSNPPTFGGGTKLEIKRTVAAPSVFIFPPSDEQLKSGTASVVCLLNNFYPREAKVQWKVDNALQSGNSQESVTEQDSKDSTYSLSSTLTLSKADYEKHKVYACEVTHQGLSSPVTKSFNRGEC
notes: also called 2-33; 10.77
As to B1, the “Corrected response (RU)” value in experiment [1] came out at 1.8 RU; in experiment [2], 2.3 RU; in experiment [3], 1170 RU; in [4], 496 RU; in experiment [5] it was 488 RU; in experiment [6] it was 3.8 RU. The “Corrected response (RU)” value in experiment [7] is 1.6 RU; in experiment [8], 2.7 RU; in [9], -1.8 RU; in experiment [10], 0.5 RU; in experiment [11] it was 0.6 RU; in experiment [12], 0.9 RU.

B2: anti-CD20 human IgG1 L235T/G236R (antibody)
heavy: not shown
light: QIVLSQSPAILSASPGEKVTMTCRASSSVSYIHWFQQKPGSSPKPWIYATSNLASGVPVRFSGSGSGTSYSLTISRVEAEDAATYYCQQWTSNPPTFGGGTKLEIKRTVAAPSVFIFPPSDEQLKSGTASVVCLLNNFYPREAKVQWKVDNALQSGNSQESVTEQDSKDSTYSLSSTLTLSKADYEKHKVYACEVTHQGLSSPVTKSFNRGEC
notes: also called 2-86
For the molecule B2, the “Corrected response (RU)” value in [13] is 0 RU; in [14], -10.6 RU; in experiment [15] it was -9.4 RU.

B3: anti-CD20 human IgG1 L234S/L235T (antibody)
heavy: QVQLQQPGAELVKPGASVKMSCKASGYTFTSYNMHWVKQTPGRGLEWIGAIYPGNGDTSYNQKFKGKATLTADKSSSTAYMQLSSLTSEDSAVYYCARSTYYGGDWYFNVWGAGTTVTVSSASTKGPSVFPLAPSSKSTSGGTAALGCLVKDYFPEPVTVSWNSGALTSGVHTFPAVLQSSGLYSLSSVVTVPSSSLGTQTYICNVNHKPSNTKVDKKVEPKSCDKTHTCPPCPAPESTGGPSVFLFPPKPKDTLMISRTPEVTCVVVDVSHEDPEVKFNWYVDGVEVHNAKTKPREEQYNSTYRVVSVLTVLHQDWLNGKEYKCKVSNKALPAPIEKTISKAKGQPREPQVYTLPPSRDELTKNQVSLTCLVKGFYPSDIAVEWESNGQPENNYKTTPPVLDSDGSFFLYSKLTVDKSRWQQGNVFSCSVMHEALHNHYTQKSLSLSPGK
light: QIVLSQSPAILSASPGEKVTMTCRASSSVSYIHWFQQKPGSSPKPWIYATSNLASGVPVRFSGSGSGTSYSLTISRVEAEDAATYYCQQWTSNPPTFGGGTKLEIKRTVAAPSVFIFPPSDEQLKSGTASVVCLLNNFYPREAKVQWKVDNALQSGNSQESVTEQDSKDSTYSLSSTLTLSKADYEKHKVYACEVTHQGLSSPVTKSFNRGEC
notes: also called 2-87
With B3, the “Corrected response (RU)” value in [13] amounted to 62.4 RU; in experiment [14], 54.1 RU; in experiment [15] it was 62.9 RU.

B4: anti-CD20 human IgG1 L234S/L235T/G236R (antibody)
heavy: QVQLQQPGAELVKPGASVKMSCKASGYTFTSYNMHWVKQTPGRGLEWIGAIYPGNGDTSYNQKFKGKATLTADKSSSTAYMQLSSLTSEDSAVYYCARSTYYGGDWYFNVWGAGTTVTVSSASTKGPSVFPLAPSSKSTSGGTAALGCLVKDYFPEPVTVSWNSGALTSGVHTFPAVLQSSGLYSLSSVVTVPSSSLGTQTYICNVNHKPSNTKVDKKVEPKSCDKTHTCPPCPAPESTRGPSVFLFPPKPKDTLMISRTPEVTCVVVDVSHEDPEVKFNWYVDGVEVHNAKTKPREEQYNSTYRVVSVLTVLHQDWLNGKEYKCKVSNKALPAPIEKTISKAKGQPREPQVYTLPPSRDELTKNQVSLTCLVKGFYPSDIAVEWESNGQPENNYKTTPPVLDSDGSFFLYSKLTVDKSRWQQGNVFSCSVMHEALHNHYTQKSLSLSPGK
light: QIVLSQSPAILSASPGEKVTMTCRASSSVSYIHWFQQKPGSSPKPWIYATSNLASGVPVRFSGSGSGTSYSLTISRVEAEDAATYYCQQWTSNPPTFGGGTKLEIKRTVAAPSVFIFPPSDEQLKSGTASVVCLLNNFYPREAKVQWKVDNALQSGNSQESVTEQDSKDSTYSLSSTLTLSKADYEKHKVYACEVTHQGLSSPVTKSFNRGEC
notes: also called 2-52; 1-150
For B4, the “Corrected response (RU)” value is -23.4 RU in experiment [16]; -12.1 RU in experiment [14]; -1 RU in experiment [17]; -9.2 RU in [19]; -23.8 RU in [15]; -8.9 RU in [20]. Also, the “Corrected response (RU)” value was 0.3 RU in experiment [7], -0.5 RU in experiment [9] and -20.7 RU in experiment [21]. For the same molecule, in experiment [18], the “Corrected response (RU), Mean” value is 0.6 RU.

B5: anti-CD20 human IgG1 N297Q (aglycosyl) (antibody)
heavy: not shown
light: QIVLSQSPAILSASPGEKVTMTCRASSSVSYIHWFQQKPGSSPKPWIYATSNLASGVPVRFSGSGSGTSYSLTISRVEAEDAATYYCQQWTSNPPTFGGGTKLEIKRTVAAPSVFIFPPSDEQLKSGTASVVCLLNNFYPREAKVQWKVDNALQSGNSQESVTEQDSKDSTYSLSSTLTLSKADYEKHKVYACEVTHQGLSSPVTKSFNRGEC
notes: also called 2-67
For the molecule B5, the “Corrected response (RU)” value in experiment [1] was 9.4 RU; in experiment [22], -1.4 RU; in experiment [3], 1040 RU; in experiment [4] it was 430 RU; in experiment [5], 426 RU; in experiment [23], 578 RU. Moreover, the figures for the “Corrected response (RU)” value in experiment [10], in experiment [11] and in experiment [12] were 49.3 RU, 1470 RU and 410 RU, respectively.
